For orientation: Kd means the concentration at which binding is half-saturated.

Experimental findings from US20190248907A1 (Merck KGaA, published 2019) are described below.

B1: oa CS06 (antibody, V domains shown)
VH: QVQLQQSGAEVKKPGSSAKVSCKASGGTFSSNAISWVRQAPGQGLEWMGGIIPIFGTAIYAQKFQGRVTITADESTSTAYMELSSLRSEDTAVYYCARDQRGYYYYYYYGMDVWGQGTTVTVSS
VL: QLVLTQSPSVSVAPGKTARITCGGNNIRNVGVHWYQKKPGQAPILVVYDDDDRPSGVPERFSGSNSGNTATLTISRVEAGDEADYYCQVWDSATDQRVFGGGTKLTVL
notes: also called one-armed CS06; anti-c-MET clone CS06 (monovalent one-armed format); copies: 1 + 1
B2: CS06 IgG1 (antibody, V domains shown)
VH: B1 VH
VL: QLVLTQSPSVSVAPGKTARITCGGNNIRNVGVHWYQKKPGQAPILVVYDDDDRPSGVPERFSGSNSGNTATLTISRVEAGDEADYYCQVWDSATDQRVFGGGTKLTVLG
notes: Bivalent IgG1; also called anti-c-MET clone CS06
B3: biparatopic bispecific heterodimeric immunoglobulin molecule comprising Fab fragments CS06 and B10v5 (bispecific antibody)
chain 1: QLVLTQSPSVSVAPGKTARITCGGNNIRNVGVHWYQKKPGQAPILVVYDDDDRPSGVPERFSGSNSGNTATLTISRVEAGDEADYYCQVWDSATDQRVFGGGTKLTVLGQPKAG
chain 2: B1 VH
chain 3: EPVLTQPPSVSVAPGETATIPCGGDSLGSKIVHWYQQRPGQAPLLVVYDDAARPSGIPERFSGSKSGTTATLTISSVEAGDEADYFCQVYDYHSDVEVFGGGTKLTVLGQPKAA
chain 4: not shown

T1 sequence (P08581 25-932 limits assumed): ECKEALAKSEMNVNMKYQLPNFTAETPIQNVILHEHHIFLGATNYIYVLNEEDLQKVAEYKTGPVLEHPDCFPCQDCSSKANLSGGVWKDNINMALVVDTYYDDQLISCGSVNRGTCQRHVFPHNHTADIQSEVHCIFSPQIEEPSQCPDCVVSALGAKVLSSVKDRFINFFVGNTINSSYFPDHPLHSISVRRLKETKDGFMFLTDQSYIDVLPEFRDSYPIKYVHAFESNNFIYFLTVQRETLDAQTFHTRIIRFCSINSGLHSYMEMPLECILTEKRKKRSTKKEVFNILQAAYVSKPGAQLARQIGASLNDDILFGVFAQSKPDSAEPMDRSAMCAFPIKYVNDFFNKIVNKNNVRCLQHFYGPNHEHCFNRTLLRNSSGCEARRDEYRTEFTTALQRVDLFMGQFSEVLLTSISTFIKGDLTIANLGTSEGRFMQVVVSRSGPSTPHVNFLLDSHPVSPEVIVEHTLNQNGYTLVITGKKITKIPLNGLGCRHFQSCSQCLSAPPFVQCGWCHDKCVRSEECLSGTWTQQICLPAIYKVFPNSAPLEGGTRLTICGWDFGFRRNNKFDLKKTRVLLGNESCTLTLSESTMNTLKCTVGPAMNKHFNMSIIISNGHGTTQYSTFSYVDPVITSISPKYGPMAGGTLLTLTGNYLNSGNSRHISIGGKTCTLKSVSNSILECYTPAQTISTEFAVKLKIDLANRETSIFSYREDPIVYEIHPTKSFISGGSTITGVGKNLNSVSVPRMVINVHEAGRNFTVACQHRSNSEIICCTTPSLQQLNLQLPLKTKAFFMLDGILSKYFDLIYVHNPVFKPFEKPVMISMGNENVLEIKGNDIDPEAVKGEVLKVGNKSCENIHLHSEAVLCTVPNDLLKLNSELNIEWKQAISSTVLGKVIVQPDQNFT

The assay concerns the target T1, human c-MET ECD (human, UniProt P08581 25-932).
T1 construct: also called recombinant human c-MET ECD; human c-MET ECD-His
Nature of the assay: not stated (summary of antibody properties, FIG. 6).
B1 yielded a Kd of approximately 0.3 nM. Molecule B2 displayed a Kd of approximately 0.134 nM.

As for B3, the Kd was approximately 0.0196 nM.
